Measured values as given in PMC8568920, “Serum apolipoprotein A-I potentiates the therapeutic efficacy of lysocin E against Staphylococcus aureus” (Nature Communications, 2021).

System: S. aureus
Experiment: Lysocin E antimicrobial activity-enhancing activity (1 unit decreases the MIC of lysocin E to 1 µg ml−1)
Format: cell-based, Staphylococcus aureus
Details: ApoA species
Method: Calf serum (10 ml) was added to 15 ml EtOH (60% v/v) and the mixture was centrifuged for 15 min. The collected supernatant was evaporated and suspended in 8 ml Milli-Q water (fraction [fr.] II). Fr. II with formic acid (0.1%) was applied to 10 ml of ODS resin (Waters Corporation, Milford, MA, USA). After washing with 25% EtOH and then 50% EtOH, the resin was eluted with 75% EtOH containing 0.1% formic acid. The eluted sample was evaporated and dissolved in 0.8 ml buffer A (10 mM phosphate buffer [pH 7.1], 6 M urea; Fr. III). Fr. III was applied to the Superose 12 10/300 GL gel filtration column (GE Healthcare) and eluted with the AKTApurifier system (GE Healthcare). The elution was performed in buffer A at a flow rate of 0.5 ml min^−1 and 60 fractions (0.5 ml per fr.) were collected in 2-ml tubes. All fractions, except for Fr. I, were dialysed in 10 mM phosphate buffer (pH 7.1) before assessment of their activities. Protein concentrations were measured using Coomassie Plus^TM protein assay reagent (Thermo Fisher) with bovine serum albumin as the standard. Amino acid sequence analysis was performed by in-gel digestion and mass spectrometric analysis. One unit was defined as the activity that decreases the MIC of lysocin E to 1 µg ml^−1.

B1: rmApoA-I: recombinant mouse ApoA-I (protein, UniProt Q00623 25-264, looked up)
Apolipoprotein A-I: DEPQSQWDKVKDFANVYVDAVKDSGRDYVSQFESSSLGQQLNLNLLENWDTLGSTVSQLQERLGPLTRDFWDNLEKETDWVRQEMNKDLEEVKQKVQPYLDEFQKKWKEDVELYRQKVAPLGAELQESARQKLQELQGRLSPVAEEFRDRMRTHVDSLRTQLAPHSEQMRESLAQRLAELKSNPTLNEYHTRAKTHLKTLGEKARPALEDLRHSLMPMLETLKTQVQSVIDKASETLTAQ
Specific activity for lysocin E antimicrobial enhancing activity: 6400 unit mg-1 protein
